Measurements reported in patent US20140112930A1 (published 2014).

Experiments:
[1] = molecular target: T1, Monomeric hAng-2FD (human, UniProt O15123 282-496); assay: SPR, captured Ab
T1 construct: also called fibrinogen-like domain of human Ang2; Human Ang-2FD
T1 sequence: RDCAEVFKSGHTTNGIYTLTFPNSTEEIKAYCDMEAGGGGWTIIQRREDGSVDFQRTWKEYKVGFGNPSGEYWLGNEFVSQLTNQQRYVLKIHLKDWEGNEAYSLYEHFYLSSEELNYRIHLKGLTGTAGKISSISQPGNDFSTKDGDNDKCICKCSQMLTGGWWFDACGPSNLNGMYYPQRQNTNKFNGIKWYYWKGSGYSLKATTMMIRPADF

[2] = molecular target: T2, wild-type human Ang-2 (hAng-2-WT) (human, UniProt O15123 19-496); assay: SPR, captured Ab
T2 construct: called full-length wild-type; also called Full-length wild-type human Ang-2
T2 sequence: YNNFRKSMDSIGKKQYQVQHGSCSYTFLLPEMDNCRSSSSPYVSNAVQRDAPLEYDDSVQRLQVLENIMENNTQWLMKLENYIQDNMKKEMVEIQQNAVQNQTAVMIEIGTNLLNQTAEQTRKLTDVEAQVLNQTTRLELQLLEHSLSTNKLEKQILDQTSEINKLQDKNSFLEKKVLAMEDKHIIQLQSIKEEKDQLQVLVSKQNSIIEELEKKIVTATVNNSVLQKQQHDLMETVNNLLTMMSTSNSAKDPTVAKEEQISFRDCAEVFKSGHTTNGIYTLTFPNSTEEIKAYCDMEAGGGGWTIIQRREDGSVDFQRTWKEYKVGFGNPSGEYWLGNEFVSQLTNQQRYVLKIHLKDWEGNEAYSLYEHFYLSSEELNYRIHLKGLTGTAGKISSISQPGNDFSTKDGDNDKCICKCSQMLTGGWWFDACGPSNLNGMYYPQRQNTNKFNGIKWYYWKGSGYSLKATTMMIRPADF

[3] = molecular target: T3, Dimeric Human Ang-2FD conjugated to human IgG1 (human); assay: SPR, captured Ab, RT
T3 construct: also called Human Ang-2FD-hFc; hAng-2FD-hFc
Protocol: (§1) Antibody was captured on a goat anti-mouse IgG polyclonal antibody surface, a goat anti-human κ polyclonal antibody (Southern Biotech, Birmingham, Ala.) surface or a goat anti-human IgG polyclonal antibody (Jackson Immuno Research Lab, West Grove, Pa.) surface created through direct amine coupling to a BIACORE™ CM5 sensor chip to form a captured antibody surface. […] Antigen-antibody binding and dissociation were monitored in real time at room temperature. Kinetic analysis was performed to calculate KD and half-life of antigen/antibody complex dissociation.

[4] = molecular target: T4, Dimeric Mouse Ang-2FD conjugated to human IgG1 (mouse (Mus musculus); human); assay: SPR, captured Ab, RT
T4 construct: also called Mouse Ang-2FD-hFc
Protocol: as §1

[5] = molecular target: T5, Dimeric Monkey Ang-2FD conjugated to human IgG1 (monkey (Macca fascicularis); human); assay: SPR, captured Ab, RT
T5 construct: also called Monkey Ang-2FD-hFc
Protocol: as §1

[6] = molecular target: T3, Dimeric Human Ang-2FD conjugated to …; assay: competition ELISA, 16.67 nM Ab, coated hTie-2-mFc
Protocol: (§2) The plate was then blocked with PBS (Irvine Scientific, Santa Ana, Calif.) containing 0.5% BSA (Sigma-Aldrich Corp., St. Louis, Mo.) for one hour at room temperature. […] Human, mouse or monkey Ang-2FD protein conjugated to human IgG (Ang-2FD-hFc) were added to final concentrations of 2 nM, 8 nM, or 2 nM respectively and incubated for one hour at room temperature. The antibody/Ang-2FD-Fc mixture was then added to the plate containing hTie-2-mFc and incubated for one hour at room temperature. Detection of Ang-2FD-hFc bound to hTie-2-mFc protein was determined with Horse-Radish Peroxidase (HRP) conjugated to a-human IgG antibody (Jackson Immuno Research Lab, West Grove, Pa.) and developed by standard colorimetric response using tetramethylbenzidine (TMB) substrate (BD Biosciences, San Jose, Calif.). Absorbance was read at OD₄₅₀ for 0.1 sec.

[7] = molecular target: T4, Dimeric Mouse Ang-2FD conjugated to …; assay: competition ELISA, 16.67 nM Ab, coated hTie-2-mFc
Protocol: as §2

[8] = molecular target: T5, Dimeric Monkey Ang-2FD conjugated to …; assay: competition ELISA, 16.67 nM Ab, coated hTie-2-mFc
Protocol: as §2

[9] = molecular target: T6, Human Ang-2FD-hFc (human); assay: blocking ELISA, 16.67 nM antibody, Ang-2FD-hFc to coated hTie-2-mFc
T6 construct: also called dimeric human Ang-2FD; human Ang-2FD protein conjugated to human IgG
Protocol: as §2

[10] = molecular target: T7, Mouse Ang-2FD-hFc (mouse (Mus musculus)); assay: as above
T7 construct: also called dimeric mouse Ang-2FD
Protocol: as §2

[11] = molecular target: T8, Biotin-hBA2 (human, biotinylated (sites not given)); assay: blocking ELISA, biotin-hBA2 to hTie-2-His, mean of two experiments
T8 construct: hBA2 consists of two dimers; also called biotinylated hBA2; human bow-Ang2
Protocol: as §2
For this experiment, human Tie-2 conjugated to a histidine tag (hTie-2-His; SEQ ID NO:526) was used in a similar fashion to the hTie-2-mFc described above. Antibody concentrations from 5 nM were serially diluted three-fold. […] An average IC₅₀ value for each antibody was calculated based on two separate experiments.

B1: H2M749N (antibody, V domains shown)
VH: QVQLVESGGGVVQPGRSLRLSCAASGFTFSSYGMHWVRQAPGKGLEWVAVIWYDEFNKYYADSVKGRFTISRDNSKNTLYLQMNSLRAEDTAVYYCARERESGYSYGFDYWGQGTLVTVSS
VL: EIVMTQSPATLSVSPGERATLSCRAGQSVSSNLAWYQQKPGQAPRLLIYGASTRATGIPARFSGSGSGTEFTLTISSLQSEDFAVYYCQQYNNWWTFGQGTKVEIK
notes: also called H1M749N; H1M749
Kd [1]: 1.38 nM | T1/2 [1]: 27.9 min | Kd [2]: 0.049 nM | T1/2 [2]: 479 min | Kd [3]: 0.165 nM | T1/2 [3]: 42.9 min | Kd [4]: 0.529 nM | T1/2 [4]: 25.5 min | Kd [5]: 1.5 nM | T1/2 [5]: 40.9 min | Percent Blocking of Ang-2FD Binding to Tie-2 [6]: 99.5% | Percent Blocking of Ang-2FD Binding to Tie-2 [7]: 97.3% | Percent Blocking of Ang-2FD Binding to Tie-2 [8]: 97.4%

B2: H1H707P (antibody, human IgG1, V domains shown)
VH: QVQLVESGGGVVQPGRSLRLSCAASGFTFSSYGMHWVRQAPDKGLEWVAVKWDDGSNKYYADSVKGRFTISRDNSKNTLYLQMNSLRAEDTAVYYCAREGPYDFYSGYGAFDIWGQGTMVTVSS
VL: not shown
notes: Human IgG1
Percent Blocking of Ang-2FD Binding to Tie-2 [9]: 95.1% | Percent Blocking of Ang-2FD Binding to Tie-2 [10]: 93.8%

B3: H1M724N (antibody, V domains shown)
VH: QVQLVESGGGVVQPGRSLRLSCAASGFTLSNYGMHWVRQAPGKGLEWVAVIWHDGSNTYYADSVKGRFTISRDNSKNTLYLQMNSLRAEDTAVYYCTREGLDFWSGYYPNWFDPWGQGTLVTVSS
VL: DIQMTQSPSSLSASVGDRVTITCRASQGIRNDLGWYQQKPGKAPKRLIYAASNLQGGVPSRFSGSGSGTEFTLTISSLQPEDFAAYYCLQHNIYPLTFGGGTKVEIK
IC50 [11]: 0.00972 nM

B4: H1M728N (antibody, V domains shown)
VH: EVQLVESGGDLVQPGGSLRLSCTASGFTFSKYWMTWVRQAPGRGLEWVANIKEDGNEKYFLDSVKGRFTISRDNAKDLLFLQMNSLRGEDTAVYYCVRDRGIEVAGPFDYWGQGTLVTVSS
VL: DIQMTQSPSTLSASVGDRVTVTCRASQTIINWLAWYQQKPGKAPKLLISKASSLESGVPSRFSGSGSGTEFTLTISSLQPDDFATYYCQQYNRYWTFGQGTMVEIK
IC50 [11]: 0.014 nM

B5: H2M730N (antibody, V domains shown)
VH: EVQLVESGGGLVQPGGSLRLSCAASGFAFRSYWMTWVRQAPGKGLEWVANIQQDGNDKYYVDSVKGRFTISRDNAKNSLYLQMNSLRAEDTAVYYCARDTGIAEAGPFDYWGQGTLVTVSS
VL: DIQMTQSPSTLSASVGDRVSITCRASQTIISWLAWYQQKPGKAPRLLIYKASSLESGVPSRFSGSGSGTEFTLTINSLQPDDFATYYCQQYNRYWTFGQGTKVEIK
IC50 [11]: 0.0146 nM
